B1: FN22 (peptide)
peptide: FNPRPQSHNDGDFEEIPEEYLQ
notes: Tested as recombinant peptide (FN22^(a), released by CNBr from the MFH fusion) and as synthetic peptide; also called FN22^(a) (recombinant preparation)
B2: FD22 (peptide)
peptide: FDPRPQSHNDGDFEEIPEEYLQ
notes: Tested as recombinant peptide (FD22^(a), released by CNBr from the MFH fusion) and as synthetic peptide; also called FD22^(a) (recombinant preparation)

What follows are binders tested against T1, human α-thrombin (human, UniProt P00734 328-622) (assay: amidolytic assay, Tos-Gly-Pro-Arg-pNA hydrolysis by human α-thrombin, 25° C.; synthetic peptide).
Description: (§1) Kinetics of thrombin-catalyzed hydrolysis of the chromogenic substrate Tos-Gly-Pro-Arg-p-nitroanilide were followed by absorbance at 405 nm on a Spectramax plate reader thermostated at either 25° C. or 37° C. according to the method of Maragnore et al (supra). The concentrations of Tos-Gly-Pro-Arg-p-nitroanilide ranged from 2 to 400 μM. […] The KM and Vₘₐₓ values were calculated accordingly and kcat values were determined by dividing Vₘₐₓ by the enzyme (thrombin) concentration. The inhibition assays were performed in the clotting buffer with a certain fixed concentration of α-thrombin (˜0.3 nM) such that linear progress curves were achieved within at least 15 min in the absence of the inhibition. The total volume of the solution was fixed at 200 μl. […] Kinetics data from initial rate experiments were used to construct Lineweaver-Burke plot; i.e. the relationship of (substrate concentration)⁻¹ versus (initial velocity)⁻¹ which. were analysed by linear regression with MicroCal Origin 4.1 program (MicroCal, MD) or using the GraphPad Prism software. The Kᵢ values of the inhibitors were determined using the equation: Kᵢ=[I]/{(SL₀/SL₁)−1}, where [0098] […] Every Dixon plot contained an array of data corresponding to different substrate concentrations and the Kᵢ values were determined from the intersections. […]

| Binder | Ki [nM] |
| --- | --- |
| B1 | 80 |
| B2 | 48 |

The binders below were run against T1, human α-thrombin (assay: amidolytic assay, Tos-Gly-Pro-Arg-pNA hydrolysis by human α-thrombin, 25° C.; recombinant peptide).
Description: as §1

| Binder | Ki [nM] |
| --- | --- |
| B1 | 100 |
| B2 | 55 |

What follows are binders tested against bovine α-thrombin (bovine, UniProt P00735 318-625) (assay: cell-based or functional assay).

| Binder | IC50, clotting assay; recombinant peptide [nM] |
| --- | --- |
| B1 | 289 |

The binders below were run against T1, human α-thrombin (assay: cell-based or functional assay).

| Binder | IC50 (DCT), clotting assay, 37° C.; recombinant peptide FN22^(a) [nM] | IC50 (DCT), clotting assay, 37° C.; synthetic peptide [nM] | IC50 (DCT), clotting assay, 37° C.; recombinant peptide FD22^(a) [nM] | IC50 (DCT), clotting assay, 37° C. [nM] |
| --- | --- | --- | --- | --- |
| B1 | 150 | 67 |  |  |
| B2 |  | 45 | 50 |  |
| FDPRPQDHNDGDFEEIPEEYLQ (Synthetic) [FD22-D] |  |  |  | 53 |
| FDPRPQRHNDGDFEEIPEEYLQ (Synthetic) [FD22-R] |  |  |  | 32 |
| FNPRPQIHNDGDFEEIPEEYLQ [FN22-I] |  |  |  | 45 |
| FQPRPQMHNDGDFEEIPEEYLQ [FQ22-M] |  |  |  | 11 |
| IQPRPQIHNDGDFEEIPEEYLQ [IQ22-I] |  |  |  | 39 |
| LDPRPQSHNDGDFEEIPEEYLQ (Synthetic) [LD22] |  |  |  | 228 |
| WDPRPQRHNDGDFEEIPEEYLQ (Synthetic) [WD22-R] |  |  |  | 22 |
| FEPRPQDHNDGDFEEIPEEYLQ [FE22-D] |  |  |  | > 125 |
| FDPRPQHHNDGDFEEIPEEYLQ [FD22-H] |  |  |  | 70 |
| FDPRPQKHNDGDFEEIPEEYLQ [FD22-K] |  |  |  | 60 |
| WDPRPQSRNDGDFEPIPEEYLQ [WD22-SR-P] |  |  |  | 53 |
| WDPRPQSRNDGDYEPIPEEYLQ [WD22-SR-YP] |  |  |  | 32 |
| GSAVPRPQIHNDGDFEEIPEEYLQ [GS-AV22-I] |  |  |  | 33 |
| GSIQPRPQIHNDGDFEEIPEEYLQ [GS-IQ22-I] |  |  |  | 10 |
| FEPRPQSHNDGDFEEIPEEYLQ [FE22] |  |  |  | 80 |
| FHPRPQSHNDGDFEEIPEEYLQ [FH22] |  |  |  | > 150 |

The binders below were run against T1, human α-thrombin (assay: amidolytic assay, Tos-Gly-Pro-Arg-pNA hydrolysis by human α-thrombin, 25° C.).
Description: Kinetics of thrombin-catalyzed hydrolysis of the chromogenic substrate Tos-Gly-Pro-Arg-p-nitroanilide were followed by absorbance at 405 nm on a Spectramax plate reader thermostated at either 25° C. or 37° C. according to the method of Maragnore et al (supra). The concentrations of Tos-Gly-Pro-Arg-p-nitroanilide ranged from 2 to 400 μM. […] The KM and Vₘₐₓ values were calculated accordingly and kcat values were determined by dividing Vₘₐₓ by the enzyme (thrombin) concentration. The inhibition assays were performed in the clotting buffer with a certain fixed concentration of α-thrombin (˜0.3 nM) such that linear progress curves were achieved within at least 15 min in the absence of the inhibition. The total volume of the solution was fixed at 200 μl. Reactions were initiated by addition of the chromogenic substrate to the wells containing thrombin and a certain concentration of the peptide inhibitors premixed for less than 2 min. Alternatively, the substrate was first mixed with the peptide inhibitor and the total volume was adjusted to 120 μL using the clotting buffer. Eighty microliters of human α-thrombin in the clotting buffer (˜0.3 nM final concentration) was added to initiate the reaction. The concentration of the peptides ranged from 0.5 nM to 10 μM. Kinetics data from initial rate experiments were used to construct Lineweaver-Burke plot; i.e. the relationship of (substrate concentration)⁻¹ versus (initial velocity)⁻¹ which. were analysed by linear regression with MicroCal Origin 4.1 program (MicroCal, MD) or using the GraphPad Prism software. The Kᵢ values of the inhibitors were determined using the equation: Kᵢ=[I]/{(SL₀/SL₁)−1}, where [0098] [I] is the inhibitor concentration, [0099] SL₀ is the slope of the reaction in the absence of inhibitors, and [0100] SL₁ is the slope of the reaction in the presence of the inhibitor. Alternatively, Dixon plots of inverse velocity versus the inhibitor concentrations were generated with the Sigmaplot™ software. Every Dixon plot contained an array of data corresponding to different substrate concentrations and the Kᵢ values were determined from the intersections. Following Peptide Cleavage by HPLC

| Binder | Ki [nM] |
| --- | --- |
| FDPRPQDHNDGDFEEIPEEYLQ (Synthetic) [FD22-D] | 58 |
| FDPRPQRHNDGDFEEIPEEYLQ (Synthetic) [FD22-R] | 45 |
| FNPRPQIHNDGDFEEIPEEYLQ [FN22-I] | 360 |
| FQPRPQMHNDGDFEEIPEEYLQ [FQ22-M] | 64 |
| IQPRPQIHNDGDFEEIPEEYLQ [IQ22-I] | 49 |
| LDPRPQSHNDGDFEEIPEEYLQ (Synthetic) [LD22] | 260 |
| WDPRPQRHNDGDFEEIPEEYLQ (Synthetic) [WD22-R] | 17 |
| GSAVPRPQIHNDGDFEEIPEEYLQ [GS-AV22-I] | 41 |
| GSIQPRPQIHNDGDFEEIPEEYLQ [GS-IQ22-I] | > 400 |

Source: patent publication US20070042946A1 (NATIONAL RESEARCH COUNCIL OF CANADA, published 2007)
